Columns and labels:
Conditions in all cases: label: 5'-FAM; single strand
[1] = biological target: T1, terminal deoxynucleotidyltransferase (TdT) (human, UniProt P04053 1-509); experiment: MST; Mn2+; Kd treated by authors as estimate; MST with 5.0 mM Mg2+ (Mn2+ or Co2+ in other runs, concentration not given); buffer, salt, pH and temperature not in the material
[2] = biological target: T1, terminal deoxynucleotidyltransferase …; experiment: MST; Co2+; Kd treated by authors as estimate; MST with 5.0 mM Mg2+ (Mn2+ or Co2+ in other runs, concentration not given); buffer, salt, pH and temperature not in the material
[3] = biological target: T1, terminal deoxynucleotidyltransferase …; experiment: MST; 5.0 mM Mg2+; MST with 5.0 mM Mg2+ (Mn2+ or Co2+ in other runs, concentration not given); buffer, salt, pH and temperature not in the material

T1 sequence (P04053 whole entry): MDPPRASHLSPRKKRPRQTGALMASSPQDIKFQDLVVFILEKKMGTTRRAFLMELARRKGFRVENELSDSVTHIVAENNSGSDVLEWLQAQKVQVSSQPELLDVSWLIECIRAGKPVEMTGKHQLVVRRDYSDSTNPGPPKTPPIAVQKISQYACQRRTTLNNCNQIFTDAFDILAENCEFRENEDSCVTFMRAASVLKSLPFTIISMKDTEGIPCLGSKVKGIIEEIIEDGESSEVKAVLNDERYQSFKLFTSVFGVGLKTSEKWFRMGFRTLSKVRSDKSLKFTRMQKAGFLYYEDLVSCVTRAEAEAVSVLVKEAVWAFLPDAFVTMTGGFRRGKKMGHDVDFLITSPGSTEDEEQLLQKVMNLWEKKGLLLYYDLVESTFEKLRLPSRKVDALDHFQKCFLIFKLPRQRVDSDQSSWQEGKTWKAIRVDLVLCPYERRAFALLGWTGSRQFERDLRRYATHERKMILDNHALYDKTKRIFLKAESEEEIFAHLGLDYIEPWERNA

Binder: GGAAGA (ssDNA) [DNA primer FAM-GGAAGA]
- Kd [1]: 800 ± 200 nM
- Kd [2]: 700 ± 100 nM
- Kd [3]: 4.6 ± 0.1 µM
